Experimental data reported in the supplement of paper PMC9170038.

Tested on: MS2 coat protein
Test: apparent KD of MS2 coat protein; designed switch direction (-1 OFF switch, 1 ON switch): -1; higher = weaker reporter binding
Method in brief: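 Designed RNA switches sharing common flanks were transcribed on Illumina chips by stalled E. coli RNA polymerase. They were titrated with SNAP-549-labelled MS2 coat protein, from 0.7 or 1.5 nM doubling to 3 µM, in Tris-HCl pH 7.5 buffer with KCl, MgCl2, BSA, DTT, tRNA and Tween-20. Titrations ran without input, with 200 uM small-molecule ligand, or with an oligonucleotide input. The apparent KD of each design is the median over its clusters, after curve-fitting of normalised cluster fluorescence.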

[1] = Eterna round: R95, input ligand: microRNA oligo, concentration not stated
[2] = input ligand: microRNA oligo, concentration not stated
[3] = Eterna round: R95, input ligand: FMN 200 uM
[4] = Eterna round: R95, input ligand: none

Sequence: AUUGAUAUUGAGGAUAUGCUUUUAUUUGUUCUUGCAGAAGGCGAUACAUGAGGAUCACCCAUGUUUAUGGAAGU [JR_E6_Sub089] (puzzle: Exclusion 6)
- apparent KD of MS2 coat protein [1]: 38.9 nM

Sequence: AACGAUCUAGGAUAUACAUGAGGAUCACCCAUGUAAGAGCCCGAACCGGGCUCCCUCUGUAGAAGGAGGUCAAA [Rileququve] (puzzle: Exclusion 3)
- apparent KD of MS2 coat protein [1]: 27.3 nM

Sequence: CUAUCGUGAGGAUAUGACCCAUAAGCACUAAAGUAGGUGAGUCAGAAGGCACAUGAGGAUCACCCAUGUGGACC [Eternabot (L1) Solution 47] (Eterna round: R97, puzzle: Exclusion 4)
- apparent KD of MS2 coat protein (input ligand: FMN 200 uM): 59.8 nM
- apparent KD of MS2 coat protein (input ligand: none): 21.9 nM

Sequence: AUCCGGCGUGUAGGAUAUGGUUCCGUUUCGGUUCCAGAAGGACAUGAGGAUCACCCAUGUGCCUGUCGUCGGUCGUCACCGGGC [salish99_ExNG1_r04_218] (Eterna round: R96, puzzle: Exclusion NG 1)
- apparent KD of MS2 coat protein (input ligand: FMN 200 uM): 43.7 nM
- apparent KD of MS2 coat protein [2]: 13.4 nM
- apparent KD of MS2 coat protein (input ligand: none): 16.5 nM

Sequence: GGAGGGCUAGGAUAUGUAACAGGGAACUUGAGGAUCACCCAAGUGGCCGAAGGCACCCUGGCAGAAGGAGUAAAGA [Inmaislari] (Eterna round: R97, puzzle: Exclusion 5)
- apparent KD of MS2 coat protein (input ligand: FMN 200 uM): 71.6 nM
- apparent KD of MS2 coat protein (input ligand: none): 50.8 nM

Sequence: UCGUGUUUAGAGGAUAUAUUAAUAUUUUAAACAAUAGAAGGCUAAACAUGAGGAUCACCCAUGUAUUUGGUUUU [JR_Ex6_Sub055] (Eterna round: R97, puzzle: Exclusion 6)
- apparent KD of MS2 coat protein (input ligand: FMN 200 uM): 46.6 nM
- apparent KD of MS2 coat protein (input ligand: none): 233 nM

Sequence: UUUUUCAGGCCAGAUCCUCACAUGAGGAUCACCCAUGUGCUCGUCUGUUUUCGCACUAUCACGUUUGUGAUAGUGCU [Level Boss var2-12] (puzzle: Sensor v3, turn-off variant 1)
- apparent KD of MS2 coat protein [3]: 207 nM
- apparent KD of MS2 coat protein [1]: 33.5 nM
- apparent KD of MS2 coat protein [4]: 216 nM

Sequence: CACUCACAUGAGGAUCACCCAUGUCAGGAUAUCUCAGUGCAUCCACACGGACGCAUCAAGAGAAGGGACAAAAC [Vinxlusion 1 - Jieux - Exclusion 1] (Eterna round: R97, puzzle: Exclusion 1)
- apparent KD of MS2 coat protein (input ligand: FMN 200 uM): 40.2 nM
- apparent KD of MS2 coat protein (input ligand: none): 36.6 nM

Sequence: AAUAUUAGAGGAUAUACAGUUUAUUACAUGAGGAUCACCCAUGUUCUUCAAUGUAUAUAAGUAGAAGGCUAAGGAA [EX-5 Malc#2] (puzzle: Exclusion 5)
- apparent KD of MS2 coat protein [3]: 157 nM
- apparent KD of MS2 coat protein [1]: 42.6 nM
- apparent KD of MS2 coat protein [4]: 43.7 nM

Sequence: GUAAAGUGAGGAUAUGGUAAAUUAAUUAUUUAGUAAUUAAUCCAGAAGGCACAUGAGGAUCACCCAUGUAAAUG [Mat - Exclusion 4 - D95] (puzzle: Exclusion 4)
- apparent KD of MS2 coat protein [1]: 32.1 nM

Sequence: ACAUGUCAUCGAGGAUAUUGGACACAUGAGGAUCACCCAUGUACUCGGAUGCUCUACCAUGAGUUCGAGAAGGCGAUGUACAUU [Ex NG2 #78] (Eterna round: R96, puzzle: Exclusion NG 2)
- apparent KD of MS2 coat protein (input ligand: FMN 200 uM): 31.9 nM
- apparent KD of MS2 coat protein [2]: 94.3 nM
- apparent KD of MS2 coat protein (input ligand: none): 181 nM

Sequence: AUUUAGUCAGGAUAUUAGUAGUAAAUAAAUAAAAUUAUUACUGAGAAGGGACAUGAGGAUCACCCAUGUGUCUA [Salish 062 v8] (Eterna round: R97, puzzle: Exclusion 4)
- apparent KD of MS2 coat protein (input ligand: FMN 200 uM): 44.4 nM
- apparent KD of MS2 coat protein (input ligand: none): 24.9 nM

Sequence: UUAAUUAAUUGCGCAAGAUCACAUGAGGAUCACCCAUGUAUAUAGGAUAUCAGCUCGUUUAGAGCUGAGAAGGAUAUACAGCGC [ExNG3/3-A2] (Eterna round: R96, puzzle: Exclusion NG 3)
- apparent KD of MS2 coat protein (input ligand: FMN 200 uM): 1320 nM
- apparent KD of MS2 coat protein [2]: 536 nM
- apparent KD of MS2 coat protein (input ligand: none): 488 nM

Sequence: CUGCUCCGUGUAGGAUAUCCCGGCAACCAAUCGGGAGAAGGACAUGAGGAUCACCCAUGUAUGUUAUUAUCACGUGAAGCGUCC [Design 27] (Eterna round: R96, puzzle: Exclusion NG 1)
- apparent KD of MS2 coat protein [2]: 16.3 nM

Sequence: AUCAGCUCGUGAGGAUAUACAUGCGUGCUUCGGCACGUAUGAUAGAUCACAUGAGGAUCACCCAUGUAGAAGGUACGAGCUGAU [ENG2/4-C3] (Eterna round: R96, puzzle: Exclusion NG 2)
- apparent KD of MS2 coat protein (input ligand: FMN 200 uM): 12.6 nM
- apparent KD of MS2 coat protein [2]: 10.7 nM
- apparent KD of MS2 coat protein (input ligand: none): 12.6 nM

Sequence: UAGAUACAUGAGGAUCACCCAUGUGAGGAUAUGAGUCAGUCACGGUGACGUGGCUGACUCAGAAGGCACAAAGG [Mat - Exclusion 1 - JL Mod - D36] (Eterna round: R97, puzzle: Exclusion 1)
- apparent KD of MS2 coat protein (input ligand: FMN 200 uM): 365 nM
- apparent KD of MS2 coat protein (input ligand: none): 202 nM

Sequence: GGUACUAACACGAAAGUGUUAGUACAAUAAGCUUGUGAAACAUGAGGAUCACCCAUGUCCUCAUAAGCUCGUCUUAA [salish99_TOv2_r3_004] (puzzle: Sensor v3, turn-off variant 2)
- apparent KD of MS2 coat protein [3]: 14.4 nM
- apparent KD of MS2 coat protein [1]: 238 nM
- apparent KD of MS2 coat protein [4]: 13.3 nM

Sequence: GCACGGAGUGUAGGAUAUUAGUGCGAUUAGCACUGAGAAGGACAUGAGGAUCACCCAUGUUCCUCAAUAAUUAACCUUCCGUGC [Eli exng1 - 039] (Eterna round: R96, puzzle: Exclusion NG 1)
- apparent KD of MS2 coat protein (input ligand: FMN 200 uM): 16.7 nM
- apparent KD of MS2 coat protein [2]: 8.49 nM
- apparent KD of MS2 coat protein (input ligand: none): 12.9 nM

Sequence: UGUGUGAGACAGGAUAUGCUGGAUGAAAGGCAGGUAGAAGGGUCUACAUGAGGAUCACCCAUGUGGCCGGUUGG [Ex6 #73] (Eterna round: R97, puzzle: Exclusion 6)
- apparent KD of MS2 coat protein (input ligand: FMN 200 uM): 20.6 nM
- apparent KD of MS2 coat protein (input ligand: none): 20.4 nM

Sequence: GGUCCCAGGCAGGAUAUGCAAGCCACACAUGGCGCAGAAGGGCUCACAUGAGGAUCACCCAUGUAUUUCGUUUU [Eternabot (L1) Solution 19] (Eterna round: R97, puzzle: Exclusion 6)
- apparent KD of MS2 coat protein (input ligand: FMN 200 uM): 86 nM
- apparent KD of MS2 coat protein (input ligand: none): 42.3 nM

Sequence: AAGUCGAGCGUGAGGAUAUCGUUCGAACGACCGAACGAGAAGGCACAUGAGGAUCACCCAUGUGAUUCAGCUCA [Brourd's EX4 #47] (Eterna round: R97, puzzle: Brourd's mod of Exclusion 4)
- apparent KD of MS2 coat protein (input ligand: FMN 200 uM): 93.6 nM
- apparent KD of MS2 coat protein (input ligand: none): 19.7 nM

Sequence: CCAUCGUGUGUGAGGAUAUGCUGGACCUUGGUUCAGCAGAAGGCACAUGAGGAUCACCCAUGUGAAGACGGUGG [Mat - Exclusion 4 - JL Mod - D89] (puzzle: Brourd's mod of Exclusion 4)
- apparent KD of MS2 coat protein [3]: 51.4 nM
- apparent KD of MS2 coat protein [1]: 24.6 nM
- apparent KD of MS2 coat protein [4]: 18.1 nM

Sequence: AGAAACAGAGGAUAUACUUGAGGAUCACCCAAGUGUCACGGAAACACUGUGCUCCUUUGUAGAAGGCUGGAAUA [Dibeon] (Eterna round: R97, puzzle: Exclusion 3)
- apparent KD of MS2 coat protein (input ligand: FMN 200 uM): 382 nM
- apparent KD of MS2 coat protein (input ligand: none): 63 nM

Sequence: UCUGUUGAAGGAUAUGCGUAACGAGUUACGGCUCGAGGUCUACAUGAGGAUCACCCAUGUAGAAGGUCAUCAGA [EX2 #70] (Eterna round: R97, puzzle: Exclusion 2)
- apparent KD of MS2 coat protein (input ligand: FMN 200 uM): 15.8 nM
- apparent KD of MS2 coat protein (input ligand: none): 15.1 nM

Sequence: CGUAUCUUUCACGUGAGUAGUGGGUGCAACAGGUGGGUUACAUGAGGAUCACCCAUGUCCUCACUUGCUCGUCUUAU [Grok-var2-05] (puzzle: Sensor v3, turn-off variant 2)
- apparent KD of MS2 coat protein [3]: 37.8 nM
- apparent KD of MS2 coat protein [1]: 124 nM
- apparent KD of MS2 coat protein [4]: 37.5 nM

Sequence: UUUUAACAUGAGGAUCACCCAUGUGAGGAUAUGCUAUUUUUUUUUUUUUUUUUUUUUUGCAGAAGGCACAUUUU [My solution] (puzzle: Exclusion 1)
- apparent KD of MS2 coat protein [3]: 12.5 nM
- apparent KD of MS2 coat protein [1]: 526 nM
- apparent KD of MS2 coat protein [4]: 26 nM

Sequence: CAUUACUACAAGCUAUGGGACAUGAGGAUCACCCAUGUUCGUCUUAUUGAUCUAGGUACGCUGACGUACCUAGAUCU [JL-sv1-2.22 Brourd mod] (puzzle: Sensor v3, turn-off variant 1)
- apparent KD of MS2 coat protein [3]: 16.6 nM
- apparent KD of MS2 coat protein [1]: 21.6 nM
- apparent KD of MS2 coat protein [4]: 15.7 nM

Sequence: GAAUAACAAGCGAGAUCCUACAUGAGGAUCACCCAUGUGCUCGUCUUAUAAAGUACUAUCACGAAAGUGAUAGUACA [Mat - Sensor v3 - turn-off var 1 - Eli Mod - D62] (puzzle: Sensor v3, turn-off variant 1)
- apparent KD of MS2 coat protein [3]: 16.2 nM
- apparent KD of MS2 coat protein [1]: 200 nM
- apparent KD of MS2 coat protein [4]: 17.5 nM

Sequence: GAGUGACAUGAGGAUCACCCAUGUAAGGAUAUACGGUUGGUAGAGAGAGGGCUAAAGGGUAGAAGGUACGAAGG [JR_Exclu1_Sub055] (puzzle: Exclusion 1)
- apparent KD of MS2 coat protein [1]: 63.1 nM

Sequence: AGCAAAUCAGGAUAUGUACUGGACGACAUGAGGAUCACCCAUGUGAUUCAGUGCGCGAGAACAGAAGGGAUUCGCU [Isor] (puzzle: Exclusion 5)
- apparent KD of MS2 coat protein [1]: 15.4 nM

Sequence: GUGCUAUAGGAAGGAUAUACUUCAUUGUUUAAACAUGAGGAUCACCCAUGUAACCUUAUGUAUGUGUAGAAGGUCCAUAGCUUA (Eterna round: R96, puzzle: Exclusion NG 2)
- apparent KD of MS2 coat protein (input ligand: FMN 200 uM): 56.9 nM
- apparent KD of MS2 coat protein [2]: 25.1 nM
- apparent KD of MS2 coat protein (input ligand: none): 30.2 nM

Sequence: GAUCUGACAGGAUAUACAUGAGGAUCACCCAUGUGCGAGCUAGCGAAAGCUAGCUCAGGUAGAAGGGUCAGAUC [Ex3 dot plot directed] (Eterna round: R96, puzzle: Exclusion 3)
- apparent KD of MS2 coat protein (input ligand: FMN 200 uM): 15.1 nM
- apparent KD of MS2 coat protein [2]: 13.1 nM
- apparent KD of MS2 coat protein (input ligand: none): 15.7 nM

Sequence: AGUAGUGGUAUCCGAUCCUACAUGAGGAUCACCCAUGUAGCUAGACGUGCACGCGAUGCUCGUCAGACUACCAGAUG [salish99_TOv1_r3_048] (puzzle: Sensor v3, turn-off variant 1)
- apparent KD of MS2 coat protein [3]: 218 nM
- apparent KD of MS2 coat protein [1]: 221 nM
- apparent KD of MS2 coat protein [4]: 184 nM

Sequence: UUAAUUUAAGGGAUAGAUCAUUACAUGAGGAUCACCCAUGUUGAGGAUAUCAGCUCGUUUAGAGCUGAGAAGGCAACAAUAGGG [ExNG3/14-A2] (Eterna round: R96, puzzle: Exclusion NG 3)
- apparent KD of MS2 coat protein (input ligand: FMN 200 uM): 58.9 nM
- apparent KD of MS2 coat protein [2]: 60 nM
- apparent KD of MS2 coat protein (input ligand: none): 163 nM
